Series [1] has as its system Bovine gamma globulin (BGG) (Bos taurus). As to the kind of experiment: FP. Conditions: control protein.
In series [2] the target is T1, Carcinoembryonic antigen (CEA) (Homo sapiens, UniProt P06731 P06731:35-685). As to the kind of experiment: FP; primer region absent; physiological binding buffer. To be noted: tags: Calbiochem; label: 5'-fluorescein. From the text: (§1) A fluorescent polarization (FP) assay was used to test the affinity of several oligonucleotide sequences to CEA (Table 4). The initial studies focused on 5 oligonucleotides. Clone 22 and clone 26 contained the sequences with the highest identity to the G-rich motif. The aptamers were synthesized with fluorescein at their 5′ ends and binding was analysis using the Beacon 2000 instrument equipped with a 530 nm emission filter and a 490 nm excitation filter from Pan Vera Corp. (Madison Wis.).
T1 sequence (P06731 35-685, one chain of several): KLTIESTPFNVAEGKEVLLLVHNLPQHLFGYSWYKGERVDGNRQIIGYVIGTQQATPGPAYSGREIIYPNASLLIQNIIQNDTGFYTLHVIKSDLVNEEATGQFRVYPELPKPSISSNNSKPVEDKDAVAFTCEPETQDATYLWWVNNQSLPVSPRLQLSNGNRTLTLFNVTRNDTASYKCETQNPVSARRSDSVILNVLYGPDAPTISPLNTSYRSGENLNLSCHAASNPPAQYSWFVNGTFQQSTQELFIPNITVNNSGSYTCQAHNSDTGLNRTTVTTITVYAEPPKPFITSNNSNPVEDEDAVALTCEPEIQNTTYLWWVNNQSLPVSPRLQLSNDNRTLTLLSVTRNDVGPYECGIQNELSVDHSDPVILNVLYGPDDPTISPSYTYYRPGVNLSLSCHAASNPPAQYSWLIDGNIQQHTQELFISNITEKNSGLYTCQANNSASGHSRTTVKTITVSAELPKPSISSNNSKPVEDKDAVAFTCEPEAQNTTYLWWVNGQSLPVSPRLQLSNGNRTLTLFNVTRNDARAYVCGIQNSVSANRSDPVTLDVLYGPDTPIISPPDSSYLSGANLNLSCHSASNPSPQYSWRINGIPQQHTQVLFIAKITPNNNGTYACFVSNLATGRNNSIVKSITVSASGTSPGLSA
(§2) In the FP assay, fluorescently labelled aptamers are added to the protein. Binding is detected by an increase in fluorescent polarization cause by the decrease in rotation of the protein bound fluorescein (FIG. 4A). The Kd is calculated by determining the CEA concentration at the half maximal mP value as determined from plots of averaged stable mP data as shown in FIGS. 4B and C. […] Unfortunately, others members of the CEA superfamily are not available commercially.

The target in series [3] is Bovine serum albumin (BSA) (Bos taurus, UniProt P02769 P02769:25-607). The experiment in a line: FP; control protein. To be noted: label: 5'-fluorescein.
Sequence of Bovine serum albumin (BSA) (P02769 25-607, one chain of several): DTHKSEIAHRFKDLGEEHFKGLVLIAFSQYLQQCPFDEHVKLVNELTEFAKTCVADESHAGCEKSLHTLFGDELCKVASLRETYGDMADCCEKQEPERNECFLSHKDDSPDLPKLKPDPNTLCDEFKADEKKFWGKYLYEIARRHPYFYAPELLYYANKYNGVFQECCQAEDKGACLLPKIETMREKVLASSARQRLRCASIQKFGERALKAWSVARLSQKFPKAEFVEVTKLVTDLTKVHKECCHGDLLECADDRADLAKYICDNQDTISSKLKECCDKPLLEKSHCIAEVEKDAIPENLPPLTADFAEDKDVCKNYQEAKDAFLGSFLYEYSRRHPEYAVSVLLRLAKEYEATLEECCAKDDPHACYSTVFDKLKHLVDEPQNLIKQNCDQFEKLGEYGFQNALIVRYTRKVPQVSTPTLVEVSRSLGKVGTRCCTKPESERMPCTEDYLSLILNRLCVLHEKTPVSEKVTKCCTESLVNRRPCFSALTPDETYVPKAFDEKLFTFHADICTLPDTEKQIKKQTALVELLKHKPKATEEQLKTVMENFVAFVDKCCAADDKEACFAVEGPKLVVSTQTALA
Text: as §1, §2

In series [4] the target is T1, Carcinoembryonic antigen (CEA). The experiment in a line: FP; physiological binding buffer. Conditions: tags: Calbiochem; label: 5'-fluorescein.
Text: as §1, §2

The target is the same in series [5]. The experiment in a line: FP; physiological binding buffer; table header prints nM-1, text nM. To be noted: tags: Calbiochem; label: 5'-fluorescein.
Text: as §1, §2
FIG. 4. Binding of clone26bases 1-50 to CEA monitored by FP in a physiological binding buffer using 4 nM aptamer. (A) Shown is the mP as a function a reading number (sample #). CEA (8 nM) was added after the tenth reading. (B) Shown is the average mP vs aptamer concentration. (C) Shown is the average mP vs CEA concentration within the linear range.

The Kd is the equilibrium constant for the complex coming apart. A lower Kd goes with higher affinity. In the case of ATACCAGCTTATTCAATT [5' primer], in series [1], the Kd was 400 nM.

Regarding “ATACCAGCTTATTCAATTGGGGTAGGGGGCGAAGCGATACCCTAATCAGC [clone26bases1-50]”, the Kd in series [1] came out at 100 nM.

Take “ATACCAGCTTATTCAATTGGGGGAGGGGGCGACGCGATACCC [clone22bases1-42]”: the Kd in series [1] was 500 nM.

Turning to “GGGGGAGGGGGCGACGCGATACCC [clone22bases19-42]”, in series [1], the Kd came out at 250 nM.

B1: clone22bases19-42 (ssDNA)
DNA: GGGGGAGGGGGCGACGCGATACCC
As for B1, the Kd amounted to 20 nM in series [2] and 400 nM in series [3].

B2: 5' primer (ssDNA)
DNA: ATACCAGCTTATTCAATT
Consider B2, for which the values for the Kd in series [4] and in series [3] were 5 nM and 300 nM, respectively.

B3: clone26bases1-50 (ssDNA)
DNA: ATACCAGCTTATTCAATTGGGGTAGGGGGCGAAGCGATACCCTAATCAGC
For B3, the Kd in series [5] is 4 nM; in series [3] it was 100 nM.

B4: clone22bases1-42 (ssDNA)
DNA: ATACCAGCTTATTCAATTGGGGGAGGGGGCGACGCGATACCC
As for B4, the Kd is 5 nM in series [4] and 200 nM in series [3].

Values taken from patent US20100254901, “Compositions comprising nucleic acid aptamers” (published 2010).
